The results in this text go back to patent US20240116985A1, “STAPLED PEPTIDES AND METHODS THEREOF” (priority 2020, published 2024).

The chains are these.
B1: I-1097 (peptide)
peptide: Ac-[αAllylPro]D[tBuAla][B5(5)]DDAAFL[S8][Phe(2-Cl)][Bta][dT]-NH2
modifications: staple 1-4, 4-11
B2: I-1087 (peptide)
peptide: Ac-[αAllylPro]D[tBuAla][B5(4)]DDAAFT[S8][Phe(2-Cl)][Bta]Q-NH2
modifications: staple 1-4, 4-11; also: later-eluting HPLC peak staple isomer composition
B3: I-1082 (peptide)
peptide: Ac-[αAllylPro]D[tBuAla][B5(4)]DDAAFN[PyrS2″][Phe(2-Cl)][Bta][Thr(ol)]
modifications: staple 1-4, 4-11
B4: I-789 (peptide)
peptide: Ac-[αAllylPro]D[tBuAla][B5(5)]DDAAFN[PyrS2][3Thi][1Nal]H-NH2
modifications: staple 1-4, 4-11
B5: I-799 (peptide)
peptide: Ac-[αAllylPro]D[tBuAla][B5]DDAAFN[PyrS2][3Thi][Trp(1-Me)]H-NH2
modifications: staple 1-4, 4-11
B6: I-800 (peptide)
peptide: Ac-[αAllylPro]D[tBuAla][B5]DDAAFN[PyrS2][3Thi][Trp(5-F)]H-NH2
modifications: staple 1-4, 4-11
B7: I-785 (peptide)
peptide: Ac-[αAllylPro]D[tBuAla][B5(5)]DDAAFN[PyrS2][3Thi][Bta]-NH2
modifications: staple 1-4, 4-11
B8: I-1099 (peptide)
peptide: Ac-[αAllylPro]D[tBuAla][B5(5)]DDAAFS[PyrS2″]F[Bta]S-NH2
modifications: staple 1-4, 4-11
B9: I-1105 (peptide)
peptide: Ac-[αAllylPro]D[tBuAla][B5(5)]DDAA[Cha]S[PyrS2″]F[Bta]S-NH2
modifications: staple 1-4, 4-11
B10: I-1083 (peptide)
peptide: Ac-[αAllylPro]D[tBuAla][B5(4)]DDAAFN[PyrS2″][Phe(2-Cl)][Bta][Phe(ol)]
modifications: staple 1-4, 4-11
B11: I-1106 (peptide)
peptide: Ac-[αAllylPro]D[tBuAla][B5(5)]DDAAFS[PyrS2″][Cha][Bta]S-NH2
modifications: staple 1-4, 4-11
B12: I-1343 (peptide)
peptide: Ac-[αAllylPro]D[tBuAla][B5(4)]D[Phe(3-COOH)]AAFF[PyrS2″][Phe(2-CF3)][Bta][Thr(ol)]
modifications: staple 1-4, 4-11
B13: I-1303 (peptide)
peptide: Ac-[αAllylPro]D[tBuAla][B5(4)]DDAAFF[PyrS2][3Thi][Bta][Thr(ol)]
modifications: staple 1-4, 4-11
B14: I-1304 (peptide)
peptide: Ac-[αAllylPro]N[tBuAla][B5(4)]DDAAFL[PyrS2][3Thi][Bta][Thr(ol)]
modifications: staple 1-4, 4-11
B15: I-1307 (peptide)
peptide: Ac-[αAllylPro]D[Cha][B5(4)]DDAAFL[PyrS2″][Phe(2-Cl)][Bta][Thr(ol)]
modifications: staple 1-4, 4-11
B16: I-1302 (peptide)
peptide: Ac-[αAllylPro]D[tBuAla][B5(4)]DDAAFL[PyrS2][3Thi][Bta][Thr(ol)]
modifications: staple 1-4, 4-11
B17: I-1311 (peptide)
peptide: Ac-[αAllylPro]D[tBuAla][B5(4)]DDAAFF[PyrS2″][Phe(2-Cl)][Bta][Thr(ol)]
modifications: staple 1-4, 4-11
B18: I-1309 (peptide)
peptide: Ac-[αAllylPro]D[tBuAla][B5(4)]DTAAFT[PyrS2″][Phe(2-Cl)][Bta][Thr(ol)]
modifications: staple 1-4, 4-11
B19: I-1310 (peptide)
peptide: Ac-[αAllylPro]D[Cha][B5(4)]DTAAFT[PyrS2″][Phe(2-Cl)][Bta][Thr(ol)]
modifications: staple 1-4, 4-11
B20: I-1891 (peptide)
peptide: Ac-[αAllylPro]D[tBuAla][B5(5)]DRAAFN[PyrS2][3Thi][Bta]Q-NH2
modifications: staple 1-4, 4-11; not fully specified; printed as Ac-PL3-Asp-Npg-B5-Asp-Arg-Ala-Ala-Phe-Asn-PyrS2-3Thi-BztA-Gln-NH2
B21: I-1904 (peptide)
peptide: Ac-[αAllylPro]D[tBuAla][B5(12)]D[Phe(3-COOH)]AAFL[PyrS2(4)][Phe(2-Cl)][Bta]N-NH2
modifications: staple 1-4, 4-11; not fully specified; printed as Ac-PL3-Asp-Npg-B5-Asp-3COOHF-Ala-Ala-Phe-Leu-PyrS2-2C1F-BztA-Asn-NH2; reading uncertain
B22: I-1892 (peptide)
peptide: Ac-[αAllylPro]D[tBuAla][B5(30)]NRAAFN[PyrS2][3Thi][Bta]Q-NH2
modifications: staple 1-4, 4-11; also: earlier-eluting HPLC isomer
B23: I-1909 (peptide)
peptide: Ac-[αAllylPro]D[tBuAla][B5(12)]D[Phe(3-COOH)][Lys(iPr)]AFL[PyrS2(4)][3Thi][Bta]F-NH2
modifications: staple 1-4, 4-11; not fully specified; printed as Ac-PL3-Asp-Npg-B5-Asp-3COOHF-iPrLys-Ala-Phe-Leu-PyrS2-3Thi-BztA-Phe-NH2; reading uncertain
B24: I-1890 (peptide)
peptide: Ac-[αAllylPro]D[tBuAla][B5(5)]DRAAFN[PyrS2][3Thi][Bta]Q-NH2
modifications: staple 1-4, 4-11; not fully specified; printed as Ac-PL3-Asp-Npg-B5-Asp-Arg-Ala-Ala-Phe-Asn-PyrS2-3Thi-BztA-Gln-NH2

Starred links: 1 amine or outer side, 2 acyl side, 3 side chain; linkers in the order of their positions; H or OH if unused. Positions of bridges follow the written chain, without caps; N, C: chain ends. Non-standard residues stand in square brackets, D forms with d. Primed or numbered codes have the meaning given here. PyrS2″ = (S)-3-amino-1-((pent-4-en-1-yloxy)carbonyl)pyrrolidine-3-carboxylic acid (stapling residue), C=CCCCOC(=O)N1CC[C@@](N[*:1])(C(=O)[*:2])C1; B5(30) = 2-amino-2-(pent-4-en-1-yl)hept-6-enoic acid (2,2-bis(4-pentenyl)glycine, stitching residue), C=CCCCC(CCCC=C)(N[*:1])C(=O)[*:2]; B5(4) = 2,2-bis(4-pentenyl)glycine = 2-amino-2-(pent-4-en-1-yl)hept-6-enoic acid (stitching residue), C=CCCCC(CCCC=C)(N[*:1])C(=O)[*:2]; B5(5) = 2,2-bis(4-pentenyl)glycine, 2-amino-2-(pent-4-en-1-yl)hept-6-enoic acid (stitching residue), C=CCCCC(CCCC=C)(N[*:1])C(=O)[*:2]; PyrS2 = (S)-3-amino-1-((pent-4-en-1-yloxy)carbonyl)pyrrolidine-3-carboxylic acid, C=CCCCOC(=O)N1CC[C@@](N[*:1])(C(=O)[*:2])C1; B5(12) = 2-amino-2-(pent-4-en-1-yl)hept-6-enoic acid (two olefin side chains), C=CCCCC(CCCC=C)(N[*:1])C(=O)[*:2]; B5(3) = 2,2-bis(4-pentenyl)glycine (stitching residue), C=CCCCC(CCCC=C)(N[*:1])C(=O)[*:2]; B5 = 2-amino-2-(pent-4-en-1-yl)hept-6-enoic acid, C=CCCCC(CCCC=C)(N[*:1])C(=O)[*:2]; Phe(3-COOH) = N[C@@H](Cc1cccc(C(=O)O)c1)C(=O)O; Trp(5-F) = N[C@@H](Cc1c[nH]c2ccc(F)cc12)C(=O)O; Phe(2-CF3) = N[C@@H](Cc1ccccc1C(F)(F)F)C(=O)O; Trp(1-Me) = Cn1cc(C[C@H](N)C(=O)O)c2ccccc21; Phe(2-Cl) = N[C@@H](Cc1ccccc1Cl)C(=O)O; 1Nal = N[C@@H](Cc1cccc2ccccc12)C(=O)O; Bta = N[C@@H](Cc1csc2ccccc12)C(=O)O; Lys(iPr) = CC(C)NCCCC[C@H](N)C(=O)O; αAllylPro = C=CC[C@@]1(C(=O)O)CCCN1; tBuAla = CC(C)(C)C[C@H](N)C(=O)O; 3Thi = N[C@@H](Cc1ccsc1)C(=O)O; Cha = N[C@@H](CC1CCCCC1)C(=O)O; S8 = C=CCCCCCC[C@](C)(N)C(=O)O; Thr(ol) = C[C@@H](O)[C@H](N)CO; Phe(ol) = N[C@H](CO)Cc1ccccc1; PyrS2(4) = not defined here

Broadly, the IC50 is the concentration at which inhibition is half-maximal. A word on the EC50: it is the concentration needed to bring the measured effect to its halfway point.

Chain of B-cat-Halo (beta-catenin HaloTag NanoBRET construct expressed in HEK293 cells) (P35222 whole entry): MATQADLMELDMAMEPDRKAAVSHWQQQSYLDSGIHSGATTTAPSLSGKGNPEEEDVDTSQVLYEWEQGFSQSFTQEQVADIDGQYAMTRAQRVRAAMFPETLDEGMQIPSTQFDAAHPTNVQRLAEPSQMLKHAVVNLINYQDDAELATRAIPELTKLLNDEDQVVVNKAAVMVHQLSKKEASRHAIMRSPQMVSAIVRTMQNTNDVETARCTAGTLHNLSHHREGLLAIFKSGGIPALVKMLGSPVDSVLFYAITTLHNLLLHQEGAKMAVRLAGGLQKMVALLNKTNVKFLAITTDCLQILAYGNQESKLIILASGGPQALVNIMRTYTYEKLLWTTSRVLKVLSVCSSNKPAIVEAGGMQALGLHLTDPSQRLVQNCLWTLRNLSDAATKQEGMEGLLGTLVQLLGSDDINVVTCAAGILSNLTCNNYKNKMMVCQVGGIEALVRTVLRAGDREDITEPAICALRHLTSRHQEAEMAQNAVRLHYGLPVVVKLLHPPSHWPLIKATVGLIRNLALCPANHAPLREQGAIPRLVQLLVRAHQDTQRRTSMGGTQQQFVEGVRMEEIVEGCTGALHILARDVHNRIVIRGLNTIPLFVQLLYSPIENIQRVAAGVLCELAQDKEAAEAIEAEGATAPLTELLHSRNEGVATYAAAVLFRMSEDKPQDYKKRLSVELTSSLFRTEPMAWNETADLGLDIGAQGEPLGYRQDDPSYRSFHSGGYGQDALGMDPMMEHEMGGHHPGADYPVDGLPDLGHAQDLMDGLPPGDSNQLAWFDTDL

One assay deals with full-length beta-Catenin (Uniprot ID P35222) (Homo sapiens (Human)) (UniProt P35222). The assay can be described thus: cell-based or functional assay.
Target sequence in this assay (P35222 2-781 limits assumed): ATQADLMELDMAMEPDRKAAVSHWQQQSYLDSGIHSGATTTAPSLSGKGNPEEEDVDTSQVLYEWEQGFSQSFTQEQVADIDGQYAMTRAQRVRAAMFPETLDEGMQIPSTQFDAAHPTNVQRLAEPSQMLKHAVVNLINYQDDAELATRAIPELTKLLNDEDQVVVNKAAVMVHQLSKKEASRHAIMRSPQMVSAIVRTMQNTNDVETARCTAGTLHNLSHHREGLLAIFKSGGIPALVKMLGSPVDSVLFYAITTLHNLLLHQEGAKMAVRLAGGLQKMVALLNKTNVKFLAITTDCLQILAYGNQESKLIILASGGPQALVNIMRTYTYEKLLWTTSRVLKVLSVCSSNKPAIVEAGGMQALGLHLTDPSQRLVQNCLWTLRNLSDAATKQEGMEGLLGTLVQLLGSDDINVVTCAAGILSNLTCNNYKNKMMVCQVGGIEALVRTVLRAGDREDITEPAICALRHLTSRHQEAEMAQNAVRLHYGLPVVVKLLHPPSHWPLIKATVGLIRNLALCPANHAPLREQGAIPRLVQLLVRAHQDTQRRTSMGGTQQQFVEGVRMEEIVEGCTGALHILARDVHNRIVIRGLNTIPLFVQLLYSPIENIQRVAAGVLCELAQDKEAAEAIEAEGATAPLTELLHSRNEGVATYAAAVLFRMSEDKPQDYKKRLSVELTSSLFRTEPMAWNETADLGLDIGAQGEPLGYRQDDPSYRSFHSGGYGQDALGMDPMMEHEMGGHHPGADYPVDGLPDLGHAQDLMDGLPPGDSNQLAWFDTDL
On to B1, for which the DLD1 reporter assay Abs IC50 is above 20000 nM.
The same measure, in the same setting: for B2 the value was above 20000 nM.
B3 displayed a DLD1 reporter assay Abs IC50 of 4800 nM.

Another assay concerns the target B-cat-Halo (beta-catenin HaloTag NanoBRET construct expressed in HEK293 cells) (UniProt P35222). The assay is described as follows: NanoBRET in HEK293 cells, Bcat-Halo + TCF4-Luc, peptide at 10 uM.
For B4, the NanoBRET % inh @ 10 uM came to 9.7%.
On the same count and under the same terms, for B5 the value was 0.9%; for B6, 8.1%; for B7, 31%.

In the next assay the target is Bcat-Halo (UniProt P35222). The assay is described as follows: NanoBRET Abs IC50 in HEK293 cells; Bcat-Halo with TCF4-Luc as competitor. For orientation: Bioluminescence resonance energy transfer reports proximity on the nanometre scale.
Chain of Bcat-Halo (P35222 whole entry): as the sequence (P35222 whole entry) above
Molecule B8 had an IC50 of 9000 nM.
In the case of B9, the IC50 is above 20000 nM.
As to B1, the IC50 was above 20000 nM.
On to B2, for which the half-maximal inhibitory concentration (IC50) is 9300 nM.
Take B10: the IC50 came out at 18800 nM.
For the molecule B11, the half-inhibitory concentration (IC50) is above 20000 nM.
Turning to B3, the half-inhibitory concentration (IC50) worked out at 14100 nM.

The next assay concerns the target full-length beta-Catenin (Uniprot ID P35222) (Homo sapiens (Human)) (UniProt P35222). The assay can be described thus: FP competition, full-length beta-catenin, competitor probe 5FAM-TCF4 10-53.
Target sequence in this assay (P35222 2-781 limits assumed): as the sequence (P35222 2-781 limits assumed) above
On to B12, for which the IC50 was 150 nM.

The next assay has the same target. The assay is described as follows: fluorescence polarization competition; full-length beta-catenin + 5FAM-TCF4 10-53 probe. On the technique in general: Polarisation of emitted light reports the rotation of a fluorescent probe.
Target sequence in this assay (P35222 2-781 limits assumed): as above
As to B13, the IC50 is 86 nM.
The same measure, in the same setting: for B14 the value was 31 nM; for B15, 21 nM; for B16, 45 nM.
Consider B17, for which the IC50 came out at 38 nM.
For B18, the IC50 worked out at 59 nM.
On to B19, for which the IC50 is 124 nM.

The target is the same in the next assay. The assay can be described thus: fluorescence polarization competition; full-length beta-catenin + 5FAM-TCF4(10-53) probe.
Target sequence in this assay (P35222 whole entry, one chain of several): as the sequence (P35222 whole entry) above
B13: the EC50 worked out at 86 nM.
As to B14, the half-maximal effective concentration (EC50) is 31 nM.
Turning to B16, the EC50 was 45 nM.

The target is the same in another assay. The assay is described as follows: fluorescence polarization competition; full-length beta-catenin, competitor 5FAM-TCF4(10-53) probe.
Target sequence in this assay (P35222 2-781 limits assumed): as the sequence (P35222 2-781 limits assumed) above
B15: the EC50 worked out at 21 nM.
For B17, the EC50 was 38 nM.
As for B18, the EC50 is 59 nM.
Regarding B12, the EC50 is 150 nM.
Still for that read-out and setting: next, B19: 124 nM.

Another assay shares this target. The assay is described as follows: fluorescence polarization competition; displacement of 5FAM-TCF4(10-53) from full-length beta-catenin.
Target sequence in this assay (P35222 whole entry, one chain of several): as the sequence (P35222 whole entry) above
B8 had an IC50 of 9 nM.
Take B9: the IC50 came to 36 nM.
For B1, the IC50 was 40 nM.
B11 registered an IC50 of 23 nM.

For the next assay the target is unchanged. The assay is described as follows: fluorescence polarization competition; full-length beta-catenin + 5FAM-TCF4(10-53) probe as competitor.
Target sequence in this assay (P35222 2-781 limits assumed): as the sequence (P35222 2-781 limits assumed) above
As for B8, the half-maximal effective concentration (EC50) was determined as 9 nM.
Regarding B9, the EC50 was determined as 36 nM.
In the case of B1, the EC50 was 40 nM.
On to B2, for which the EC50 was determined as 9 nM.
As for B10, the EC50 stood at 8 nM.
Take B11: the EC50 was determined as 23 nM.
As for B3, the EC50 came out at 5 nM.

A further assay shares this target. The assay is described as follows: fluorescence polarization competition; peptide displaces 5FAM-TCF4(10-53) from full-length beta-catenin.
Target sequence in this assay (P35222 2-781 limits assumed): as above
B4: the 50% inhibitory concentration (IC50) is 19 nM.
Turning to B7, the IC50 was determined as 6 nM.

A further assay has the same target. The assay can be described thus: fluorescence polarization competition; peptide titrated against 5FAM-TCF4(10-53) bound to full-length beta-catenin.
Target sequence in this assay (P35222 whole entry, one chain of several): as the sequence (P35222 whole entry) above
Molecule B20 had an IC50 of 40 nM.
For the molecule B21, the IC50 came out at 15 nM.
B22 gave an IC50 of 1420 nM.
The same measure, in the same setting: next, B23: 29 nM; B24: 31 nM.

The next assay shares this target. The assay can be described thus: fluorescence polarization competition; 10 nM full-length beta-catenin with 10 nM 5FAM-TCF4(10-53) probe as competitor.
On to B5, for which the IC50 came to 92 nM.
B6 came in with an IC50 of 79 nM.

For another assay the target is unchanged. The assay can be described thus: fluorescence polarization competition; peptide titrated against 10 nM full-length beta-catenin + 10 nM 5FAM-TCF4(10-53).
Regarding B2, the IC50 is 9 nM.
For the molecule B10, the IC50 is 8 nM.
B3: the IC50 is 5 nM.

The next assay shares this target. The assay can be described thus: fluorescence polarization competition: peptide titrated against 10 nM full-length beta-catenin + 10 nM 5FAM-TCF4(10-53) probe.
Regarding B4, the EC50 was 19 nM.
In the case of B5, the EC50 turned out to be 92 nM.
Still for that read-out and setting: next, B6: 79 nM; B7: 6 nM.
